Molecular target: Cyno Gal-3 (Macaca fascicularis)
Assay: SPR; kinetic fit, which the text calls poor for the monkey sample; immobilised partner and concentrations not given

- Kd: 64.1 nM
B1: SIF001 (antibody, V domains shown)
VH: QVQLVQSGSELKKPGASVKVSCKASGYTFTNYGMNWVRQAPGQGLEWMGWINTYTGEPTYADDFKGRFVFSLDTSVSTAYLQISSLKNEDMAVYFCARYAMDYWGQGTLVTVSS
VL: EAVVTQEPSLTVSPGGTVTLTCRSSTGAVTTSNYANWVQQKPGQAFTGLIGGTSNRAPGTPARFSGSLLGDKAALTLLGAQPEDEAEYFCALWYSTHYVFGGGTKLTVL

Source: patent publication US20260034233A1
